# Data as given in publication PMC13042984.
# Biological target: RFX5 DBD (Homo sapiens) (UniProt P48382)
# Assay: EMSA
# Conditions: KD values only in figure; hmC/mC CpG; EMSA: 20 mM HEPES, 30 mM KCl, 1 mM EDTA, 1 mM (NH4)2SO4, 0.2% Tween 20, 1 mM DTT, 5 uM dA:dT competitor, 2 nM DNA, 20 min, 21 C (pH not stated); pulldown: 50 mM
# RFX5 DBD (Homo sapiens), sequence (P48382 75-168): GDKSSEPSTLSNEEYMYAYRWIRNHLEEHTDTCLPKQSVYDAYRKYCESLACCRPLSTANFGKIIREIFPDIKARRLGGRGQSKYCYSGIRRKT
substance,measurement,value
X-box 1 probe hmC/mC,binding signal (fold weaker than mC/mC (KD)),2.5
